Reference: paper PMC12554370, “MdMAPK6-mediated phosphorylation of MdWRKY9 regulates apple fruit ripening through interaction with MdERF5L”

Columns and labels:
MdWRKY9 = MdWRKY9 (Malus domestica, UniProt D9ZJG3 1-520); assay: EMSA; LightShift Chemiluminescent EMSA kit (Thermo), per manufacturer's protocol; buffer, salt, pH and temperature not stated; settings: protein: recombinant; tags: GST (pGEX-4T-1) or His (pET-32a); label: biotin (hot probe); blunt
MdERF5L [1] = target: T1, MdERF5L (Malus domestica, UniProt A0A498JN73 1-332); assay: EMSA; cold probe competes; LightShift Chemiluminescent EMSA kit (Thermo), per manufacturer's protocol; buffer, salt, pH and temperature not stated; settings: protein: recombinant; tags: GST (pGEX-4T-1); label: biotin (hot probe); blunt
MdERF5L [2] = target: T1, MdERF5L; assay: EMSA; mutations disrupted binding; LightShift Chemiluminescent EMSA kit (Thermo), per manufacturer's protocol; buffer, salt, pH and temperature not stated; settings: protein: recombinant; tags: GST (pGEX-4T-1); blunt

T1 sequence (A0A498JN73 entry or part of it): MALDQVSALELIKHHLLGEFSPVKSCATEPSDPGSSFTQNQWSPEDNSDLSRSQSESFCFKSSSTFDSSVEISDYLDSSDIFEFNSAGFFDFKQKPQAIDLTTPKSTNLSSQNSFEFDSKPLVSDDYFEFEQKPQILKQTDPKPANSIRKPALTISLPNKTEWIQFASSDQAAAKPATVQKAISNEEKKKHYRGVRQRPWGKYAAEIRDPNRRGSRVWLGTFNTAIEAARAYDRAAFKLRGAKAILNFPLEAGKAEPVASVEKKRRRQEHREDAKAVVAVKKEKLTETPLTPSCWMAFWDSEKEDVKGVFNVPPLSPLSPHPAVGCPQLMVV
Chain of MdWRKY9 (D9ZJG3 entry or part of it): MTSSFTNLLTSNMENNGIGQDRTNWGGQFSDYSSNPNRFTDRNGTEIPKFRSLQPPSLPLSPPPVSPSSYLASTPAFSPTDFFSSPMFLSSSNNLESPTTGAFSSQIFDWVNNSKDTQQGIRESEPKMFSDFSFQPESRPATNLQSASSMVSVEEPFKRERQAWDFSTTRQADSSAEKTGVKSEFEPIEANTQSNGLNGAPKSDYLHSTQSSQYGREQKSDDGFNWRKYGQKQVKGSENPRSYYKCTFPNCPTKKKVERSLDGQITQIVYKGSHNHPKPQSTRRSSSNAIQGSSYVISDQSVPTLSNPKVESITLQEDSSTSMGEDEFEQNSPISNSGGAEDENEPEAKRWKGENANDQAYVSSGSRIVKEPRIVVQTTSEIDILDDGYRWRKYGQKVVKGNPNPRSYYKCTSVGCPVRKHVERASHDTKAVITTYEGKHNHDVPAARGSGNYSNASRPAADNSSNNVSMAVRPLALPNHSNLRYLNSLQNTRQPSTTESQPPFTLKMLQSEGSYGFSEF

B1: MdERF5L-W-box probe (dsDNA)
DNA 1: AATTTGTATATCGTTTTCTGGGTCAATGATACGTTTTTTTATATTA
DNA 2: TAATATAAAAAAACGTATCATTGACCCAGAAAACGATATACAAATT
B1: binds (MdWRKY9).

B2: MdACS1-DRE probe (dsDNA)
DNA 1: AAAATAGAGGAGAAAAATGGCCGACAAAATTTGTTGTGGCTACTA
DNA 2: TAGTAGCCACAACAAATTTTGTCGGCCATTTTTCTCCTCTATTTT
B2: binds (MdERF5L [1]).

B3: MdACS1-DRE mutant probe (dsDNA)
DNA 1: AAAATAGAGGAGAAAAATGGTCTAGAAAATTTGTTGTGGCTACTA
DNA 2: TAGTAGCCACAACAAATTTTCTAGACCATTTTTCTCCTCTATTTT
B3: no binding (MdERF5L [2]).
